B1: Lysine-specific demethylase 3A (Homo sapiens), Q9Y4C1 (parent)
chain: MVLTLGESWPVLVGRRFLSLSAADGSDGSHDSWDVERVAEWPWLSGTIRAVSHTDVTKKDLKVCVEFDGESWRKRRWIEVYSLLRRAFLVEHNLVLAERKSPEISERIVQWPAITYKPLLDKAGLGSITSVRFLGDQQRVFLSKDLLKPIQDVNSLRLSLTDNQIVSKEFQALIVKHLDESHLLKGDKNLVGSEVKIYSLDPSTQWFSATVINGNPASKTLQVNCEEIPALKIVDPSLIHVEVVHDNLVTCGNSARIGAVKRKSSENNGTLVSKQAKSCSEASPSMCPVQSVPTTVFKEILLGCTAATPPSKDPRQQSTPQAANSPPNLGAKIPQGCHKQSLPEEISSCLNTKSEALRTKPDVCKAGLLSKSSQIGTGDLKILTEPKGSCTQPKTNTDQENRLESVPQALTGLPKECLPTKASSKAELEIANPPELQKHLEHAPSPSDVSNAPEVKAGVNSDSPNNCSGKKVEPSALACRSQNLKESSVKVDNESCCSRSNNKIQNAPSRKSVLTDPAKLKKLQQSGEAFVQDDSCVNIVAQLPKCRECRLDSLRKDKEQQKDSPVFCRFFHFRRLQFNKHGVLRVEGFLTPNKYDNEAIGLWLPLTKNVVGIDLDTAKYILANIGDHFCQMVISEKEAMSTIEPHRQVAWKRAVKGVREMCDVCDTTIFNLHWVCPRCGFGVCVDCYRMKRKNCQQGAAYKTFSWLKCVKSQIHEPENLMPTQIIPGKALYDVGDIVHSVRAKWGIKANCPCSNRQFKLFSKPASKEDLKQTSLAGEKPTLGAVLQQNPSVLEPAAVGGEAASKPAGSMKPACPASTSPLNWLADLTSGNVNKENKEKQPTMPILKNEIKCLPPLPPLSKSSTVLHTFNSTILTPVSNNNSGFLRNLLNSSTGKTENGLKNTPKILDDIFASLVQNKTTSDLSKRPQGLTIKPSILGFDTPHYWLCDNRLLCLQDPNNKSNWNVFRECWKQGQPVMVSGVHHKLNSELWKPESFRKEFGEQEVDLVNCRTNEIITGATVGDFWDGFEDVPNRLKNEKEPMVLKLKDWPPGEDFRDMMPSRFDDLMANIPLPEYTRRDGKLNLASRLPNYFVRPDLGPKMYNAYGLITPEDRKYGTTNLHLDVSDAANVMVYVGIPKGQCEQEEEVLKTIQDGDSDELTIKRFIEGKEKPGALWHIYAAKDTEKIREFLKKVSEEQGQENPADHDPIHDQSWYLDRSLRKRLHQEYGVQGWAIVQFLGDVVFIPAGAPHQVHNLYSCIKVAEDFVSPEHVKHCFWLTQEFRYLSQTHTNHEDKLQVKNVIYHAVKDAVAMLKASESSFGKP

Variants of: B1
Conditions: with STAT1, P42224-1
Chain of STAT1, P42224-1 (P42224 whole entry): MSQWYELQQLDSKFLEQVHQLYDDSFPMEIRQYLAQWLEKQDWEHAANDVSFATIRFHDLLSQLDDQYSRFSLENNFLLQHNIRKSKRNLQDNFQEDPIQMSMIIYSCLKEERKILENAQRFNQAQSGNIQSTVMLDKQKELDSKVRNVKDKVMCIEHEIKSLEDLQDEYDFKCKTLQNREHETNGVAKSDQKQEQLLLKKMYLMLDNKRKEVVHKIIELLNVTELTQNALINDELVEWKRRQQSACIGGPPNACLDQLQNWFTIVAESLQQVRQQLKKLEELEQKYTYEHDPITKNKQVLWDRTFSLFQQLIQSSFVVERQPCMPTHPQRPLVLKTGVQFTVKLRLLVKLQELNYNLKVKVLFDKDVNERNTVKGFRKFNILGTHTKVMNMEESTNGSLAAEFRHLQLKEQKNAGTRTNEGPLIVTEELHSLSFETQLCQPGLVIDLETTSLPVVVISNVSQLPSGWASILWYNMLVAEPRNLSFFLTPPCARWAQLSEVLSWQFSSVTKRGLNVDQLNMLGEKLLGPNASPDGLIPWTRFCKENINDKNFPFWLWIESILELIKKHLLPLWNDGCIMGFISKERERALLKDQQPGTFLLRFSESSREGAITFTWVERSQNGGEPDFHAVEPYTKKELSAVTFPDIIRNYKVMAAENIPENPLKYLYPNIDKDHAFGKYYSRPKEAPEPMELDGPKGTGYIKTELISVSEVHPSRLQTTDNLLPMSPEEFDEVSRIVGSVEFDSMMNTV

| effect of a mutation on the interaction | Variant |
| --- | --- |
| disrupting interaction strength | S264A |

From IntAct's records for PubMed 25535969
